Measured values taken from the supplement of paper PMC10126150.
± gives the standard deviation of the averaged measurements.

Test system: ATP
Assay: switch fluorescence ratio, 500 uM ATP over buffer (Cy3 cluster intensity, sum of 5 cycles each) (fold (ratio)); higher = stronger signal-on switching upon ATP binding; sequences stand for … in TCGTCGGCAGCGTCAGATGTGTATAAGAGACAGTTTTTTTTTTTTTTTTTTTTTTTTT…TC
Conditions: aptamer strand: ATP DNA aptamer (quencher-CACCTGGGGGAGTATTGCGGAGGAAGG + anchor), 100 nM annealed; ATP concentration: 500 uM
Summary of the method: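 For every switch-domain sequence, the fluorescence ratio is the mean of per-cluster values, each being summed target-cycle Cy3 intensity over summed buffer-cycle Cy3 intensity. Clusters outside 100-1000 RFU were excluded. On a modified Illumina MiSeq flow-cell, the Cy3-labelled switching-strand clusters were annealed to 100 nM quencher-labelled ATP aptamer, imaged in selection buffer and then after 15 min with 500 uM ATP at 22 °C. Five such cycles were run, with NaOH stripping and re-annealing between them.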
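Further: ATP exposure 15 min at 22 °C before imaging.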

Row | Sequence | switch fluorescence ratio
1 | ACATAGGCGG | 1.022 ± 0.0083
2 | ACATAGGGGT | 1.01 ± 0.013
3 | ACATCATAAA | 0.988 ± 0.023
4 | ACATCATAGC | 1.048 ± 0.0076
5 | ACATGAAGAT | 1.031 ± 0.0025
6 | ACATGAGCGG | 0.971 ± 0.019
7 | ACATGAGGGA | 1.02 ± 0.067
8 | ACATGAGGGG | 1.026 ± 0.0094
9 | ACATGATAGT | 1.01 ± 0.043
10 | ACATGGGGCG | 1 ± 0.054
11 | ACATGTAGAG | 1 ± 0.0056
12 | ACATGTGTTT | 1.03 ± 0.028
13 | ACATGTTGGT | 1.02 ± 0.028
14 | ACATTAGGGA | 1.04 ± 0.058
15 | ACATTCGTCC | 1.37 ± 0.063
16 | ACATTGAACG | 1.07 ± 0.017
17 | ACATTGCGAC | 1.137 ± 0.0028
18 | ACATTGGAGG | 0.986 ± 0.025
19 | ACATTGGGCT | 1.01 ± 0.072
20 | ACATTGGGGC | 0.978 ± 0.046
21 | ACATTGTGCG | 0.969 ± 0.048
22 | ACATTTATGT | 0.9939 ± 0.0052
23 | ACATTTCTCA | 1.04 ± 0.021

Row | Sequence | switch fluorescence ratio
24 | ACATTTTAAG | 1 ± 0.026
25 | ACATTTTGG | 1.002 ± 0.0081
26 | ACCAAATTCA | 1.04 ± 0.0087
27 | ACCAACCGT | 1.16 ± 0.02
28 | ACCAAGGGAG | 1.037 ± 0.0064
29 | ACCAAGTTTT | 1.019 ± 0.0072
30 | ACCAATGGTC | 1.02 ± 0.041
31 | ACCACAGTTC | 1.06 ± 0.015
32 | ACCAGCTACA | 1.09 ± 0.033
33 | ACCAGGAGAT | 1.046 ± 0.0011
34 | ACCAGGCAGC | 1.12 ± 0.024
35 | ACCAGGGGAG | 1.26 ± 0.066
36 | ACCAGTGGGC | 1.04 ± 0.049
37 | ACCATAAGGG | 1 ± 0.028
38 | ACCATCAGCG | 1.038 ± 0.0019
39 | ACCATTGGTG | 1.12 ± 0.013
40 | ACCCACTGGG | 1.06 ± 0.03
41 | ACCCAGAGCG | 1.14 ± 0.023
42 | ACCCCCCTGT | 1.37 ± 0.41
43 | ACCCCCTTCT | 1.32 ± 0.048
44 | ACCCCTATTT | 1.1116 ± 0.00045
45 | ACCCGACGAG | 1.03 ± 0.039
46 | ACCCGGATGG | 1.01 ± 0.021

Row | Sequence | switch fluorescence ratio
47 | ACCCGGCTTC | 1.024 ± 0.0077
48 | ACCCGGGCTT | 0.995 ± 0.026
49 | ACCCGGGGTT | 0.994 ± 0.013
50 | ACCCGTAATG | 1.75 ± 0.028
51 | ACCCTCGAAT | 1.02 ± 0.011
52 | ACCCTGTTGC | 1.12 ± 0.072
53 | ACCGACCGGG | 1.074 ± 0.005
54 | ACCGCACGGA | 1.55 ± 0.29
55 | ACCGCGGTCG | 0.974 ± 0.049
56 | ACCGGACATG | 1.07 ± 0.034
57 | ACCGGAGGGG | 1.17 ± 0.26
58 | ACCGGAGTTC | 1.23 ± 0.014
59 | ACCGGCACAT | 1.273 ± 0.0092
60 | ACCGGCCAGC | 1.002 ± 0.004
61 | ACCGGCCTGG | 1 ± 0.025
62 | ACCGGGAAAG | 1.062 ± 0.0096
63 | ACCGGGATGG | 0.994 ± 0.024
64 | ACCGGGGGGG | 1 ± 0.035
65 | ACCGGTAAAT | 1.01 ± 0.037
66 | ACCGTAGGGG | 0.973 ± 0.016
67 | ACCGTGAGGC | 1.02 ± 0.088
68 | ACCGTGTGTG | 0.995 ± 0.046
69 | ACCGTTTGGT | 0.999 ± 0.038

Row | Sequence | switch fluorescence ratio
70 | ACCGTTTTGT | 1.02 ± 0.019
71 | ACCTACGAGT | 1.37 ± 0.044
72 | ACCTAGCGCA | 1.33 ± 0.045
73 | ACCTAGTTTT | 1.011 ± 0.0078
74 | ACCTATTCGT | 1.054 ± 0.0047
75 | ACCTGAATAG | 1.14 ± 0.11
76 | ACCTGGTGGG | 0.984 ± 0.028
77 | ACCTTAGTGC | 1.1 ± 0.048
78 | ACGAAAGGTT | 1.034 ± 0.0089
79 | ACGAAATAGT | 1.183 ± 0.0065
80 | ACGAACGATC | 1.35 ± 0.022
81 | ACGAAGAAGT | 1.012 ± 0.0048
82 | ACGAAGGATA | 1.04 ± 0.014
83 | ACGAAGGTCT | 0.998 ± 0.012
84 | ACGAAGTTAG | 0.998 ± 0.015
85 | ACGACCGTTG | 1.02 ± 0.061
86 | ACGACGGTAG | 1.02 ± 0.029
87 | ACGAGAGGGT | 0.973 ± 0.023
88 | ACGAGGACAG | 1.06 ± 0.0025
89 | ACGAGGGAAA | 2.12 ± 1.6
90 | ACGAGGGTCA | 1.01 ± 0.06
91 | ACGAGGGTGG | 1.065 ± 0.0084
92 | ACGAGGGTTG | 1.01 ± 0.026

Row | Sequence | switch fluorescence ratio
93 | ACGAGTAGGC | 0.986 ± 0.021
94 | ACGAGTTAGT | 0.9933 ± 0.0045
95 | ACGATCCACG | 1.04 ± 0.045
96 | ACGATCGGCT | 1.06 ± 0.2
97 | ACGATGAGGA | 0.982 ± 0.07
98 | ACGATGTGCT | 0.982 ± 0.015
99 | ACGATTATTC | 1.07 ± 0.039
100 | ACGATTTAAG | 1.03 ± 0.05
101 | ACGCATTATT | 1.62 ± 0.051
102 | ACGCATTCAA | 1.236 ± 0.0039
103 | ACGCATTGGT | 1.188 ± 0.0086
104 | ACGCCCACGT | 1.22 ± 0.038
105 | ACGCCCACTA | 1.38 ± 0.1
106 | ACGCCCTGGC | 1.04 ± 0.045
107 | ACGCGACATT | 1.12 ± 0.039
108 | ACGCGACGG | 1.13 ± 0.018
109 | ACGCGATATG | 1.253 ± 0.01
110 | ACGCGCCGGG | 1.063 ± 0.0039
111 | ACGCGGACAC | 1.22 ± 0.065
112 | ACGCGGGACA | 1.04 ± 0.014
113 | ACGCGGGGGT | 1.07 ± 0.069
114 | ACGCGTCGGC | 1.06 ± 0.013
115 | ACGCTAAATA | 1.26 ± 0.03

Row | Sequence | switch fluorescence ratio
116 | ACGCTACATT | 1.39 ± 0.031
117 | ACGCTCCTGG | 1.15 ± 0.034
118 | ACGCTGCCAG | 1.04 ± 0.02
119 | ACGCTTAGAC | 1.66 ± 0.24
120 | ACGCTTGTGC | 1.08 ± 0.042
121 | ACGGAACAGC | 1.11 ± 0.13
122 | ACGGAAGGGA | 0.991 ± 0.036
123 | ACGGAAGGGT | 1.04 ± 0.043
124 | ACGGAAGGTT | 1.03 ± 0.043
125 | ACGGAATATT | 1.171 ± 0.0019
126 | ACGGACGGGG | 1.11 ± 0.036
127 | ACGGAGGGCT | 1.02 ± 0.015
128 | ACGGAGTTAC | 1.84 ± 0.18
129 | ACGGCAAGGG | 1.15 ± 0.063
130 | ACGGCACTCG | 1.4 ± 0.1
131 | ACGGCAGAGG | 1.09 ± 0.02
132 | ACGGCATTAA | 1.165 ± 0.0043
133 | ACGGCATTGC | 1.19 ± 0.037
134 | ACGGCCACTG | 1.07 ± 0.019
135 | ACGGCCGGGA | 1.02 ± 0.026
136 | ACGGCCTGGG | 1.03 ± 0.03
137 | ACGGCGAGGG | 1.02 ± 0.039
138 | ACGGCTTAGG | 1.03 ± 0.034

Row | Sequence | switch fluorescence ratio
139 | ACGGGACGGC | 1.04 ± 0.14
140 | ACGGGACTAG | 1.02 ± 0.099
141 | ACGGGAGGGG | 1.04 ± 0.048
142 | ACGGGATG | 1.039 ± 0.0044
143 | ACGGGATGGG | 1.062 ± 0.01
144 | ACGGGCAGGG | 1.03 ± 0.041
145 | ACGGGCCTTG | 0.987 ± 0.0063
146 | ACGGGCTGGG | 1.1 ± 0.02
147 | ACGGGCTGTG | 1.01 ± 0.054
148 | ACGGGCTTCG | 1.05 ± 0.049
149 | ACGGGGACGG | 1.03 ± 0.042
150 | ACGGGGGAAC | 1.046 ± 0.0071
151 | ACGGGGGCCT | 1.014 ± 0.0045
152 | ACGGGGGGAG | 1.01 ± 0.035
153 | ACGGGGGGCG | 0.984 ± 0.052
154 | ACGGGGGGCT | 0.995 ± 0.057
155 | ACGGGGGTAG | 0.989 ± 0.022
156 | ACGGGGGTTC | 1.01 ± 0.012
157 | ACGGGGTAAA | 1.004 ± 0.009
